According to US20190241654A1 (published 2019):
Residue numbers refer to the chain shown, from its start. “And” between values parts separate entries of the source, which are not always exact repeats. Identical values can stand only once.

B1: Ab1119/Ab480 (LC Ab1119, HC Ab480) anti-CD47 antibody (antibody, V domains shown)
VH: QMQLVQSGAEVKKPGSSVKVSCKASGFNIKDYYLHWVRQAPGKGLEWMGWIDPDQGDTEYAQKFQGRVTITRDRSTSTAYMELRSLRAEDTAVYYCNAAYGSSSYPMDYWGQGTLVTVSS
VL: NIQMTQSPSSLSASVGDRVTITCRASQDIHRYLSWFQQKPGKVPKHLIYRANRLVSGVPSRFSGSGSGTEFTLTISSLQPEDFATYYCLQYDEFPYTFGGGTKVEIK
notes: Variant of AbParental
B2: Ab356/Ab1120 (HC Ab356, LC Ab1120) anti-CD47 antibody (antibody, V domains shown)
VH: B1 VH with L115T
VL: B1 VL with A51Y, N52V, L54F, S56D
notes: FR and CDR L2 variant of AbParental
B3: Ab356/Ab1121 (HC Ab356, LC Ab1121) anti-CD47 antibody (antibody, V domains shown)
VH: B1 VH with L115T
VL: B1 VL with A51Y, N52I, L54F, S56D
notes: FR and CDR L2 variant of AbParental; The label order is HC/LC although the head says 'LC/HC'; the row in running number order (r442) is used
B4: Ab356/Ab1122 (HC Ab356, LC Ab1122) anti-CD47 antibody (antibody, V domains shown)
VH: B1 VH with L115T
VL: B1 VL with A51Y, N52E, L54F, S56D
notes: FR and CDR L2 variant of AbParental; The label order is HC/LC although the head says 'LC/HC'; r445 is used
B5: Ab356/Ab1127 (HC Ab356, LC Ab1127) anti-CD47 antibody (antibody, V domains shown)
VH: B1 VH with L115T
VL: B1 VL with A51E, N52S, L54F, S56D
notes: FR and CDR L2 variant of AbParental; The label order is HC/LC although the head says 'LC/HC'; r460 is used
B6: Ab356/Ab1129 (HC Ab356, LC Ab1129) anti-CD47 antibody (antibody, V domains shown)
VH: B1 VH with L115T
VL: B1 VL with A51H, N52I, L54F, S56D
notes: FR and CDR L2 variant of AbParental; The label order is HC/LC although the head says 'LC/HC'; r466 is used
B7: Ab480/Ab1120 (HC Ab480, LC Ab1120) anti-CD47 antibody (antibody, V domains shown)
VH: B1 VH
VL: B1 VL with A51Y, N52V, L54F, S56D
notes: as for B2
B8: Ab480/Ab1121 (HC Ab480, LC Ab1121) anti-CD47 antibody (antibody, V domains shown)
VH: B1 VH
VL: B1 VL with A51Y, N52I, L54F, S56D
notes: FR and CDR L2 variant of AbParental; The label order is HC/LC although the head says 'LC/HC'; r442 is used
B9: Ab480/Ab1122 (HC Ab480, LC Ab1122) anti-CD47 antibody (antibody, V domains shown)
VH: B1 VH
VL: B1 VL with A51Y, N52E, L54F, S56D
notes: as for B4
B10: Ab480/Ab1127 (HC Ab480, LC Ab1127) anti-CD47 antibody (antibody, V domains shown)
VH: B1 VH
VL: B1 VL with A51E, N52S, L54F, S56D
notes: as for B5
B11: Ab482/Ab387 (LC Ab482, HC Ab387) anti-CD47 antibody (antibody, V domains shown)
VH: B1 VH with A88S
VL: B1 VL with L11M, R24K
notes: Framework variant of AbParental
B12: Ab495/Ab356 (LC Ab495, HC Ab356) anti-CD47 antibody (antibody, V domains shown)
VH: B1 VH with L115T
VL: B1 VL with R24K, F36Y, V43A
notes: as for B11
B13: Ab495/Ab480 (LC Ab495, HC Ab480) anti-CD47 antibody (antibody, V domains shown)
VH: B1 VH
VL: B1 VL with R24K, F36Y, V43A
notes: as for B11
B14: Ab1119/Ab170 (LC Ab1119, HC Ab170) anti-CD47 antibody (antibody, V domains shown)
VH: B1 VH with A88S, L115T
VL: B1 VL
notes: Variant of AbParental
B15: Ab1119/Ab356 (LC Ab1119, HC Ab356) anti-CD47 antibody (antibody, V domains shown)
VH: B1 VH with L115T
VL: B1 VL
notes: Variant of AbParental
B16: Ab1119/Ab387 (LC Ab1119, HC Ab387) anti-CD47 antibody (antibody, V domains shown)
VH: B1 VH with A88S
VL: B1 VL
notes: Variant of AbParental
B17: AbParental, parental anti-CD47 antibody (antibody, human IgG4 S228P, kappa, V domains shown)
VH: B1 VH with P14T, K43Q, G44A, G66D, T76M, R84S, A88S, V93M, L115T
VL: NIQMTQSPSAMSASVGDRVTITCKASQDIHRYLSWFQQKPGKVPKHLIYRANRLVSGVPSRFSGSGSGTEFTLTISSLQPEDFATYYCLQYDEFPYTFGGGTKVEIKR
notes: Parental anti-CD47 antibody, described in WO 2013/119714 A1; also called Parental LC-HC; parental antibody
B18: Ab480/Ab1127 (antibody, V domains shown)
VH: B1 VH
VL: B1 VL with A51E, N52S, L54F, S56D
notes: FR and CDR L2 variant; Label printed HC first; r460 used; also called HC Ab480 / LC Ab1127
B19: Ab482/Ab387 (antibody, V domains shown)
VH: B1 VH with A88S
VL: B1 VL with L11M, R24K
notes: FR variant of AbParental; also called LC Ab482 / HC Ab387
B20: Ab495/Ab356 (antibody, V domains shown)
VH: B1 VH with L115T
VL: B1 VL with R24K, F36Y, V43A
notes: also called LC Ab495 / HC Ab356
B21: Ab495/Ab480 (antibody, V domains shown)
VH: B1 VH
VL: B1 VL with R24K, F36Y, V43A
notes: also called LC Ab495 / HC Ab480
B22: Ab1119/Ab170 (antibody, V domains shown)
VH: B1 VH with A88S, L115T
VL: B1 VL
notes: Variant of AbParental; also called LC Ab1119 / HC Ab170
B23: Ab1119/Ab356 (antibody, V domains shown)
VH: B1 VH with L115T
VL: B1 VL
notes: Variant of AbParental; also called LC Ab1119 / HC Ab356
B24: Ab1119/Ab387 (antibody, V domains shown)
VH: B1 VH with A88S
VL: B1 VL
notes: Variant of AbParental; also called LC Ab1119 / HC Ab387
B25: AbParental (parental anti-CD47 antibody) (antibody, human IgG4 S228P, kappa, V domains shown)
VH: B1 VH with P14T, K43Q, G44A, G66D, T76M, R84S, A88S, V93M, L115T
VL: B17 VL
notes: also called Parental LC-HC; parental antibody

Assays:
[1] = biological target: T1, CD47 on CCRF-CEM cells (human, UniProt Q08722 19-323); experiment: flow cytometry on antibody-opsonized CCRF-CEM cells, anti-human Alexa 647 secondary, median fluorescence, sigmoidal fit; Donor 2
T1 construct: Target is CD47 carried by the CD47-positive cell line CCRF-CEM; also called Cluster of Differentiation 47; integrin-associated protein
Description: (§1) Phagocytosis was assayed by serum starving the macrophages in incomplete AIM V media for two hours. During this incubation period, target cells (CCRF-CEM) from two donors (donor 1 and donor 2) were labeled with CSFE (Invitrogen, #C34554) at […] for 15 minutes at room temperature. Cells were rinsed twice with PBS (Hyclone, #SH30028.02) and resuspended at 8×10⁵/mL in AIM V media. Antibody dilutions were prepared at 0.01 ug/ml to 10 ug/ml in half log dilutions and then incubated with the target cell line for 10 minutes at room temperature (a small portion is retained for flow cytometric analysis/cell binding), after which 100 μL of target cell/antibody suspension was added to the macrophage plates. Samples were treated in triplicate and with appropriate isotype controls.
(§2) Samples were incubated for 30 minutes at room temperature, rinsed 2× and then resuspended in FACS buffer and analyzed on the Attune. The EC50 values refer to the concentration that gives half the maximum binding measured as median fluorescent intensity, and was determined by non-linear fit of a sigmoidal dose response within the GraphPad Prism software.

[2] = biological target: T1, CD47 on CCRF-CEM cells; experiment: flow cytometry on antibody-opsonized CCRF-CEM cells, anti-human Alexa 647 secondary, median fluorescence, sigmoidal fit
Description: as §1, §2

[3] = biological target: T1, CD47 on CCRF-CEM cells; experiment: cell-based or functional assay
[4] = biological target: T1, CD47 on CCRF-CEM cells; experiment: flow cytometry on antibody-opsonized CCRF-CEM cells, anti-human Alexa 647 secondary, median fluorescence, sigmoidal fit; Donor 1
Description: as §1, §2

[5] = biological target: T2, recombinant extracellular domain of CD47 (UniProt Q08722 19-139, limits assumed); experiment: SPR; antibody captured on anti-human Fc, CD47-ECD flowed 0-100 nM; 1:1 Langmuir
T2 construct: extracellular domain; Analyte flowed over the captured antibodies in SPR; also called CD47-ECD
Description: The binding kinetics of anti-CD47 antibodies to the recombinant extracellular domain of CD47 were determined by using surface Plasmon resonance (SPR, MASS-1, Sierra Sensors; T200, Biacore, GE Healthcare Life Sciences). Anti-human Fc (P/N: BR-1008-39 (GE Healthcare Life Sciences)) was immobilized on a High Capacity Amine chip (P/N: SPR-AS-HCA, Sierra sensors) or CM5-S Chip (GE Healthcare Life Sciences). CD47 antibodies were captured on Human IgG FC and CD47-ECD was flowed over the surface at various concentrations ranging from zero (for double referencing) to 100 nM. In order to determine KD's, antibodies were ranked using a 1:1 Langmuir model.

T2 sequence (Q08722 19-139 limits assumed): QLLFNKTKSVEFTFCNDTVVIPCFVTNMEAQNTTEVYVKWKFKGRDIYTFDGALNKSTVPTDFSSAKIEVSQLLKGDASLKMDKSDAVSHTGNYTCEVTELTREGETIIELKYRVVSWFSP
T1 sequence (Q08722 19-323): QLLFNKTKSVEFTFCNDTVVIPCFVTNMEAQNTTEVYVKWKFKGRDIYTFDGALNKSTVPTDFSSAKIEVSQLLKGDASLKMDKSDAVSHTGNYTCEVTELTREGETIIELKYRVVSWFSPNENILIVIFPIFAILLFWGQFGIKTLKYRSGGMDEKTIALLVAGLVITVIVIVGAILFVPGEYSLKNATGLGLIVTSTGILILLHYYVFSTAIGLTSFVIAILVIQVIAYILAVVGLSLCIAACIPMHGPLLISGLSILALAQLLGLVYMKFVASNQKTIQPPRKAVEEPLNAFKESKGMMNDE

Binder	EC50 [1] [µg/mL]	EC50 [2]	Phagocytosis EC50 (ug/mL), Donor 1 [3]	Phagocytosis EC50 (ug/mL), Donor 2 [3]	EC50 [4] [µg/mL]	Kd [5]	koff [5]	kon [5]
B1	0.07	0.012 µg/mL	0.44 µg/mL and 0.19 µg/mL	0.71 µg/mL and 0.24 µg/mL	0.04			
B2	0.16		0.68 µg/mL	1.82 µg/mL	0.17			
B3	0.16		0.48 µg/mL	1.29 µg/mL	0.19			
B4	0.22		1.07 µg/mL	1.83 µg/mL	0.17			
B5	0.15		0.66 µg/mL	0.96 µg/mL	0.11			
B6			12.8 µg/mL		0.16			
B7	0.17		0.73 µg/mL	2.01 µg/mL	0.33			
B8	0.17		0.43 µg/mL	1.42 µg/mL	0.17			
B9	0.17		1.1 µg/mL	1.84 µg/mL	0.16			
B10	0.2		1.88 µg/mL	1.95 µg/mL	0.08			
B11		0.014 µg/mL	0.15 µg/mL	0.17 µg/mL				
B12		0.035 µg/mL	0.68 µg/mL	0.92 µg/mL				
B13		0.066 µg/mL	0.59 µg/mL	0.94 µg/mL				
B14		0.015 µg/mL	0.15 µg/mL	0.62 µg/mL				
B15	0.16	0.014 µg/mL and 0.035 µg/mL	0.36 µg/mL and 0.31 µg/mL and 0.14 µg/mL		0.06			
B16		0.011 µg/mL and 0.014 µg/mL		0.52 µg/mL and 0.21 µg/mL				
B17		0.014 µg/mL	0.38 µg/mL	0.13 µg/mL				
B18						2420 pM	0.00622 s⁻¹	2.57e+06 M⁻¹ s⁻¹
B19						553 pM	0.00549 s⁻¹	9.93e+06 M⁻¹ s⁻¹
B20						1360 pM	0.00426 s⁻¹	3.13e+06 M⁻¹ s⁻¹
B21						1320 pM	0.00434 s⁻¹	3.29e+06 M⁻¹ s⁻¹
B22						562 pM	0.00583 s⁻¹	1.04e+07 M⁻¹ s⁻¹
B23						635 pM and 599 pM	0.00647 s⁻¹ and 0.0059 s⁻¹	1.02e+07 M⁻¹ s⁻¹ and 9.85e+06 M⁻¹ s⁻¹
B24						556 pM and 529 pM	0.00571 s⁻¹ and 0.00552 s⁻¹	1.03e+07 M⁻¹ s⁻¹ and 1.04e+07 M⁻¹ s⁻¹
B25						236 pM	0.00187 s⁻¹	7.94e+06 M⁻¹ s⁻¹
